{"source": "IntAct's records for PubMed 31515488", "parents": {"B1": {"name": "Low-density lipoprotein receptor class A domain-containing protein 1 (Homo sapiens), Q5T700 (parent)", "chain": "MNKVFPQGENGYTAAESKAHPGGEAGGGHLCCSRRGACLSASLLLLLATVAALIALVTILGLPSCTPGAQACITLTNRTGFLCHDQRSCIPASGVCDGVRTCTHGEDEDESLCRDVPQSLPHFLVAHCGDPASWIYSDQKCDGTNNCGDCSDELSPVTVCPPCGPGWWRCPSTFFKYCDCIPRHLCRDHVQHCSDWSDEYACPGP", "partner": "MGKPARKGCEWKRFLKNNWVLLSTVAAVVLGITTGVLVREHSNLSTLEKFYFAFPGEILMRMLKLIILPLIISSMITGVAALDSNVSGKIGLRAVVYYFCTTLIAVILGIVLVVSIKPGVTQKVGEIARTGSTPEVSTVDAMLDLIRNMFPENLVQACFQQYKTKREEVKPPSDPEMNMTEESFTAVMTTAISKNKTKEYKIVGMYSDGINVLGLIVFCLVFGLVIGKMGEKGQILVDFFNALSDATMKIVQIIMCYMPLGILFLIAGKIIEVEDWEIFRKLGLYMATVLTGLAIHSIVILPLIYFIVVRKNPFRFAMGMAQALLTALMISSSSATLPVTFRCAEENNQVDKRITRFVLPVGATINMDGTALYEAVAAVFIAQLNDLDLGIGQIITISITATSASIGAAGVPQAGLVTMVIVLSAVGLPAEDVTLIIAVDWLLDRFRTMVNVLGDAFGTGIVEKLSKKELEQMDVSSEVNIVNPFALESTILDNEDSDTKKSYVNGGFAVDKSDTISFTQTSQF"}, "B2": {"name": "Progranulin (Homo sapiens), P28799 (parent)", "chain": "MWTLVSWVALTAGLVAGTRCPDGQFCPVACCLDPGGASYSCCRPLLDKWPTTLSRHLGGPCQVDAHCSAGHSCIFTVSGTSSCCPFPEAVACGDGHHCCPRGFHCSADGRSCFQRSGNNSVGAIQCPDSQFECPDFSTCCVMVDGSWGCCPMPQASCCEDRVHCCPHGAFCDLVHTRCITPTGTHPLAKKLPAQRTNRAVALSSSVMCPDARSRCPDGSTCCELPSGKYGCCPMPNATCCSDHLHCCPQDTVCDLIQSKCLSKENATTDLLTKLPAHTVGDVKCDMEVSCPDGYTCCRLQSGAWGCCPFTQAVCCEDHIHCCPAGFTCDTQKGTCEQGPHQVPWMEKAPAHLSLPDPQALKRDVPCDNVSSCPSSDTCCQLTSGEWGCCPIPEAVCCSDHQHCCPQGYTCVAEGQCQRGSEIVAGLEKMPARRASLSHPRDIGCDQHTSCPVGQTCCPSLGGSWACCQLPHAVCCEDRQHCCPAGYTCNVKARSCEKEVVSAQPATFLARSPHVGVKDVECGEGHFCHDNQTCCRDNRQGWACCPYRQGVCCADRRHCCPAGFRCAARGTKCLRREAPRWDAPLRDPALRQLL", "partner": "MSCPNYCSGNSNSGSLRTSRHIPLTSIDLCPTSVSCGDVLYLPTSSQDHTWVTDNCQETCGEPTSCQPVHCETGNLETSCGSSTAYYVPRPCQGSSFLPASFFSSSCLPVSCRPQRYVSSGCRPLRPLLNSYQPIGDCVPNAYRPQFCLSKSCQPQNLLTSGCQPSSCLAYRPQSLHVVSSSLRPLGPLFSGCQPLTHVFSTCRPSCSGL"}, "B3": {"name": "Stabilizer of axonemal microtubules 1 (Homo sapiens), Q8IYX7 (parent)", "chain": "MKTKCICELCSCGRHHCPHLPTKIYDKTEKPCLLSEYTENYPFYHSYLPRESFKPRREYQKGPIPMEGLTTSRRDFGPHKVAPVKVHQYDQFVPSEENMDLLTTYKKDYNPYPVCRVDPIKPRDSKYPCSDKMECLPTYKADYLPWNQPRREPLRLEHKYQPASVRFDNRTTHQDDYPIKGLVKTISCKPLAMPKLCNIPLEDVTNYKMSYVAHPVEKRFVHEAEKFRPCEIPFESLTTQKQSYRGLMGEPAKSLKPLARPPGLDMPFCNTTEFRDKYQAWPMPRMFSKAPITYVPPEDRMDLLTTVQAHYTCPKGAPAQSCRPALQIKKCGRFEGSSTTKDDYKQWSSMRTEPVKPVPQLDLPTEPLDCLTTTRAHYVPHLPINTKSCKPHWSGPRGNVPVESQTTYTISFTPKEMGRCLASYPEPPGYTFEEVDALGHRIYKPVSQAGSQQSSHLSVDDSENPNQRELEVLA"}, "B4": {"name": "Serine/threonine-protein kinase PAK 5 (Homo sapiens), Q9P286 (parent)", "chain": "MFGKKKKKIEISGPSNFEHRVHTGFDPQEQKFTGLPQQWHSLLADTANRPKPMVDPSCITPIQLAPMKTIVRGNKPCKETSINGLLEDFDNISVTRSNSLRKESPPTPDQGASSHGPGHAEENGFITFSQYSSESDTTADYTTEKYREKSLYGDDLDPYYRGSHAAKQNGHVMKMKHGEAYYSEVKPLKSDFARFSADYHSHLDSLSKPSEYSDLKWEYQRASSSSPLDYSFQFTPSRTAGTSGCSKESLAYSESEWGPSLDDYDRRPKSSYLNQTSPQPTMRQRSRSGSGLQEPMMPFGASAFKTHPQGHSYNSYTYPRLSEPTMCIPKVDYDRAQMVLSPPLSGSDTYPRGPAKLPQSQSKSGYSSSSHQYPSGYHKATLYHHPSLQSSSQYISTASYLSSLSLSSSTYPPPSWGSSSDQQPSRVSHEQFRAALQLVVSPGDPREYLANFIKIGEGSTGIVCIATEKHTGKQVAVKKMDLRKQQRRELLFNEVVIMRDYHHDNVVDMYSSYLVGDELWVVMEFLEGGALTDIVTHTRMNEEQIATVCLSVLRALSYLHNQGVIHRDIKSDSILLTSDGRIKLSDFGFCAQVSKEVPKRKSLVGTPYWMAPEVISRLPYGTEVDIWSLGIMVIEMIDGEPPYFNEPPLQAMRRIRDSLPPRVKDLHKVSSVLRGFLDLMLVREPSQRATAQELLGHPFLKLAGPPSCIVPLMRQYRHH", "partner": "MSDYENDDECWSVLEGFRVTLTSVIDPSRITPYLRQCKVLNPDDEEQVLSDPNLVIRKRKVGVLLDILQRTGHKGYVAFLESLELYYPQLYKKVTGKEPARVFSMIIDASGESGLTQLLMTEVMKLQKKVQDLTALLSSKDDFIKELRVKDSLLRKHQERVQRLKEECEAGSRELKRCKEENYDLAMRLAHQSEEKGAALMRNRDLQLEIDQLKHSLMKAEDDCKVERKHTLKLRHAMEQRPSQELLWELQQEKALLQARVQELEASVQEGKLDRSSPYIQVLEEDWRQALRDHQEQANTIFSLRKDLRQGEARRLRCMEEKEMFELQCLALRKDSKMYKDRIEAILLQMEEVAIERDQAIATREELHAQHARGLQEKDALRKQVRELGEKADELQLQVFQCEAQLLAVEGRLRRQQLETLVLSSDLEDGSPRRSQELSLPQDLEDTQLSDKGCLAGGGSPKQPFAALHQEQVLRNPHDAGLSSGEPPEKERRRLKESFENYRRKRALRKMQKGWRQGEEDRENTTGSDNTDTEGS"}, "B5": {"name": "UPF0488 protein C8orf33 (Homo sapiens), Q9H7E9 (parent)", "chain": "MAALGHLAGEAAAAPGPGTPCASRGARLPGPVSSARNPSTVCLCPEQPTCSNADSRAHPLGDEGGTASKKQKNKKKTRNRASVANGGEKASEKLAPEEVPLSAEAQAQQLAQELAWCVEQLELGLKRQKPTPKQKEQAIGAIRTLRSKRTPLPRKRQLMHSLFGDYRAQMEAEWREALRALRAAAYSAQVQPVDGATRKKSQRVCRPRSIWRAKATLDMPDEEFRFNFF"}, "B6": {"name": "EGF-containing fibulin-like extracellular matrix protein 1 (Homo sapiens), Q12805 (parent)", "chain": "MLKALFLTMLTLALVKSQDTEETITYTQCTDGYEWDPVRQQCKDIDECDIVPDACKGGMKCVNHYGGYLCLPKTAQIIVNNEQPQQETQPAEGTSGATTGVVAASSMATSGVLPGGGFVASAAAVAGPEMQTGRNNFVIRRNPADPQRIPSNPSHRIQCAAGYEQSEHNVCQDIDECTAGTHNCRADQVCINLRGSFACQCPPGYQKRGEQCVDIDECTIPPYCHQRCVNTPGSFYCQCSPGFQLAANNYTCVDINECDASNQCAQQCYNILGSFICQCNQGYELSSDRLNCEDIDECRTSSYLCQYQCVNEPGKFSCMCPQGYQVVRSRTCQDINECETTNECREDEMCWNYHGGFRCYPRNPCQDPYILTPENRCVCPVSNAMCRELPQSIVYKYMSIRSDRSVPSDIFQIQATTIYANTINTFRIKSGNENGEFYLRQTSPVSAMLVLVKSLSGPREHIVDLEMLTVSSIGTFRTSSVLRLTIIVGPFSF"}}}
{"variants_of": "B1", "conditions": "with eaa3_human SLC1A1, P43005"}
{"variant": "E108K", "effect of a mutation on the interaction": "with no effect"}
{"variants_of": "B2", "conditions": "with kr261_human KRTAP26-1, Q6PEX3"}
{"variant": "R433W", "effect of a mutation on the interaction": "with no effect"}
{"variant": "G515A", "effect of a mutation on the interaction": "with no effect"}
{"variant": "D536E", "effect of a mutation on the interaction": "with no effect"}
{"variants_of": "B3", "conditions": "with rbtn2_human LMO2, P25791"}
{"variant": "D118G", "effect of a mutation on the interaction": "with no effect"}
{"variant": "N464K", "effect of a mutation on the interaction": "disrupting interaction strength"}
{"variants_of": "B3", "conditions": "with fhl3_human FHL3, Q13643"}
{"variant": "D118G", "effect of a mutation on the interaction": "with no effect"}
{"variant": "N464K", "effect of a mutation on the interaction": "with no effect"}
{"variants_of": "B4", "conditions": "with card9_human CARD9, Q9H257"}
{"variant": "R335P", "effect of a mutation on the interaction": "with no effect"}
{"variants_of": "B5", "conditions": "with ldoc1_human LDOC1, O95751"}
{"variant": "G25R", "effect of a mutation on the interaction": "with no effect"}
{"variants_of": "B5", "conditions": "with cep70_human CEP70, Q8NHQ1"}
{"variant": "G25R", "effect of a mutation on the interaction": "with no effect"}
{"variants_of": "B6", "conditions": "with sgta_human SGTA"}
{"variant": "D49A", "effect of a mutation on the interaction": "with no effect"}
{"variants_of": "B6", "conditions": "with ric8a_human RIC8A"}
{"variant": "D49A", "effect of a mutation on the interaction": "with no effect"}
